The values below come from US6140364A, “Arachidonic acid metabolite, 16-HETE” (The University of Vermont and State Agricultural College, priority 1996, dated 2000).

Positions count from the first letter of the chain named. Numbers in names are those of the source.

In data set [1] the test system is rabbit model of thromboembolic stroke (brain infarct). As to the kind of experiment: Brain infarct size in rabbit model of thromboembolic stroke. It is filed as in vivo. The conditions noted are these: 16-HETE 1 μg/kg per minute for 1 hour from 1 h after embolization, tPA 6.3 mg/kg between 3 and 5 hours.
Description: New Zealand rabbits of either sex, weighing 3-4 kilograms were used for the study. Prior to the start of the experiment, the rabbits were divided into three groups, those that were administered either 16-HETE at a rate of 1 μg/kg per minute for one hour, tPA (Genentech, Inc., San Francisco, Calif.) at a concentration of 6.3 mg/kg. 16-HETE plus tPA, or vehicle.
On the day of treatment the animals were fasted for 12 hours with free access to water and then anesthetized with an intramuscular solution of ketamine (50 mg/kg), acepromazine (20 mg) and xylazine (5 mg/kg). This solution was subsequently used to maintain a surgical depth of anesthesia as determined by responses to various physiologic and autonomic stimuli, including mean arterial pressure and response to paw pinch.
The animals were prepared for surgery by introducing femoral venous and arterial catheters (PE50 and 90, respectively; Clay Adams, Parsippany, N.J.). […]
Following determination of all base line values the right common carotid bifurcation is exposed, the internal carotid artery (ICA) isolated, a micro-arteriotomy performed and the 15-mm clot embolized intracranially via the ICA. […] Post embolization rCBF is then determined and the experiment continued if rCBF is reduced to 15 cc /100 gm/minute in at least one of the PT-IR electrodes within the embolized hemisphere. […]
Data set [2] has as its system fibrin. To be noted: compared with native tPA or other variants; cited from earlier work.
The conditions of data set [3]: compared with native tPA; cited from earlier work.

B1: tPA: tissue plasminogen activator (Genentech, Inc.), thrombolytic agent (protein, UniProt P00750 36-562, looked up)
Tissue-type plasminogen …: SYQVICRDEKTQMIYQQHQSWLRPVLRSNRVEYCWCNSGRAQCHSVPVKSCSEPRCFNGGTCQQALYFSDFVCQCPEGFAGKCCEIDTRATCYEDQGISYRGTWSTAESGAECTNWNSSALAQKPYSGRRPDAIRLGLGNHNYCRNPDRDSKPWCYVFKAGKYSSEFCSTPACSEGNSDCYFGNGSAYRGTHSLTESGASCLPWNSMILIGKVYTAQNPSAQALGLGKHNYCRNPDGDAKPWCHVLKNRRLTWEYCDVPSCSTCGLRQYSQPQFRIKGGLFADIASHPWQAAIFAKHRRSPGERFLCGGILISSCWILSAAHCFQERFPPHHLTVILGRTYRVVPGEEEQKFEVEKYIVHKEFDDDTYDNDIALLQLKSDSSRCAQESSVVRTVCLPPADLQLPDWTECELSGYGKHEALSPFYSERLKEAHVRLYPSSRCTSQHLLNRTVTDNMLCAGDTRSGGPQANLHDACQGDSGGPLVCLNDGRMTLVGIISWGLGCGQKDVPGVYTKVTNYLDWIRDNMRP
Take B1: in data set [1], the brain infarct size result is recorded as “significantly larger than the 16-HETE group”.

B2: TNK tPA: triple mutant variant of wild type tPA: T103N, N117Q, KHRR (296-299) AAAA tPA (protein, UniProt P00750 36-562, looked up, variant T103N N117Q K296A H297A R298A R299A)
Tissue-type plasminogen …: B1 Tissue-type plasminogen … with T103N, N117Q, K296A, H297A, R298A, R299A
On to B2, for which the potency / effectiveness entry in data set [2] was “most effective of the triple mutant variants”.

B3: C84S tPA: tPA variant in which cysteine at position 84 of the growth factor domain of native tPA is replaced by serine (protein, UniProt P00750 36-562, looked up, variant C84S)
Tissue-type plasminogen …: B1 Tissue-type plasminogen … with C84S
For the molecule B3, the “in vivo / circulatory half life” value in data set [3] is given as “longer in vivo half life than native tPA”. Also, in data set [2], the potency / effectiveness result is “retains the functional activity of native tPA”.
